Key:
RPA (Rfa1-Rfa2-Rfa3) [1] = target: T1, RPA (Rfa1-Rfa2-Rfa3) (Saccharomyces cerevisiae, UniProt P22336;P26754;P26755 1-621;1-273;1-122); assay: EMSA; 150 mM KCl; second RPA at 20 nM, third at 200 nM; EMSA: 20 mM Tris-HCl pH 7.5, 150 (or 15) mM KCl, 1 mM DTT, 100 ug/mL BSA, 5 nM DNA, 30 C 10 min; curtains: 40 mM Tris-HCl pH 7.5, 150 or 15 mM NaCl, 2 mM MgCl2, 1 mM DTT, 0.2 mg/mL BSA; MST: 1x PBS-P+; settings: protein: recombinant; tags: His tag (MST: His-tagged RPA, RED-tris-NTA dye); copies: 1;1;1; label: 5'-32P
T1 sequence (P22336 whole entry, chain 1 of 3): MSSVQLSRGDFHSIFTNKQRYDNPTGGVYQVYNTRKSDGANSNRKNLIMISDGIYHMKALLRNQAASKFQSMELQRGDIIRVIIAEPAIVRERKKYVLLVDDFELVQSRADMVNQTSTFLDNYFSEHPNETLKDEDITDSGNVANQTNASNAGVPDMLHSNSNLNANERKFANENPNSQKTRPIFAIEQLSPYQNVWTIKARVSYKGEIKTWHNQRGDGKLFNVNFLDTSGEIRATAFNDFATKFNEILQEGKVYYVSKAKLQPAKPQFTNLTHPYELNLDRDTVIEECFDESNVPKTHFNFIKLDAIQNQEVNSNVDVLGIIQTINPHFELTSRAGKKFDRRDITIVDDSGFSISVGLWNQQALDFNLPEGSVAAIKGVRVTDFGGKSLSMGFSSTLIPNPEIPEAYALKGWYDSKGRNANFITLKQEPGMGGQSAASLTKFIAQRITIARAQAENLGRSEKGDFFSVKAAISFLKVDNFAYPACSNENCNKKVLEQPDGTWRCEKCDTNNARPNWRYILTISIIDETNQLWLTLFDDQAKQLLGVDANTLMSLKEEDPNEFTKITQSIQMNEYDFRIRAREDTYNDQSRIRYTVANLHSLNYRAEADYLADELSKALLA
T1 sequence (P26754 whole entry, chain 2 of 3): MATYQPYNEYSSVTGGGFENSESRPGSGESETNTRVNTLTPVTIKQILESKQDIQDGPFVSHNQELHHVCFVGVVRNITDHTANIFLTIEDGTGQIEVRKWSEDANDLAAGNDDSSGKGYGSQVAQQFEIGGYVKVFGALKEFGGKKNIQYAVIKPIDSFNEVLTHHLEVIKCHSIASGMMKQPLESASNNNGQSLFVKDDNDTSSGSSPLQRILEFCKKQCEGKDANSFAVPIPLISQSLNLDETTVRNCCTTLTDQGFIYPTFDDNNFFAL
T1 sequence (P26755 whole entry, chain 3 of 3): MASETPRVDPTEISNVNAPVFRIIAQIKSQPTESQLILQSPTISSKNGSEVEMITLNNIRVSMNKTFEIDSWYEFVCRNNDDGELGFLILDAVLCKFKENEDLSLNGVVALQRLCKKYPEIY

RPA (Rfa1-Rfa2-Rfa3) [2] = target: T1, RPA (Rfa1-Rfa2-Rfa3); assay: EMSA; 150 mM KCl; second RPA binds at 50-100 nM; EMSA: 20 mM Tris-HCl pH 7.5, 150 (or 15) mM KCl, 1 mM DTT, 100 ug/mL BSA, 5 nM DNA, 30 C 10 min; curtains: 40 mM Tris-HCl pH 7.5, 150 or 15 mM NaCl, 2 mM MgCl2, 1 mM DTT, 0.2 mg/mL BSA; MST: 1x PBS-P+; settings: protein: recombinant; tags: His tag (MST: His-tagged RPA, RED-tris-NTA dye); copies: 1;1;1; label: 5'-32P
RPA (Rfa1-Rfa2-Rfa3) [3] = target: T1, RPA (Rfa1-Rfa2-Rfa3); assay: EMSA; 150 mM KCl; single shifted species; EMSA: 20 mM Tris-HCl pH 7.5, 150 (or 15) mM KCl, 1 mM DTT, 100 ug/mL BSA, 5 nM DNA, 30 C 10 min; curtains: 40 mM Tris-HCl pH 7.5, 150 or 15 mM NaCl, 2 mM MgCl2, 1 mM DTT, 0.2 mg/mL BSA; MST: 1x PBS-P+; settings: protein: recombinant; tags: His tag (MST: His-tagged RPA, RED-tris-NTA dye); copies: 1;1;1; label: 5'-32P (EMSA); unlabeled (MST)
RPA-MeGFP = RPA-MeGFP (Saccharomyces cerevisiae, UniProt P22336;P26754;P26755 1-621;1-273;1-122); assay: MST; similar to RPA; EC50 only in figure; PBS-P+; EMSA: 20 mM Tris-HCl pH 7.5, 150 (or 15) mM KCl, 1 mM DTT, 100 ug/mL BSA, 5 nM DNA, 30 C 10 min; curtains: 40 mM Tris-HCl pH 7.5, 150 or 15 mM NaCl, 2 mM MgCl2, 1 mM DTT, 0.2 mg/mL BSA; MST: 1x PBS-P+; settings: protein: recombinant; tags: MeGFP (eGFP A206K)-6xHis at Rfa2 C-terminus, LG linker; copies: 1;1;1; label: 5'-32P (EMSA); unlabeled (MST)
Sequence of RPA-MeGFP (P22336 whole entry, chain 1 of 3): as the sequence (P22336 whole entry, chain 1 of 3) above
Sequence of RPA-MeGFP (P26754 whole entry, chain 2 of 3): as the sequence (P26754 whole entry, chain 2 of 3) above
Sequence of RPA-MeGFP (P26755 whole entry, chain 3 of 3): as the sequence (P26755 whole entry, chain 3 of 3) above

RPA (Rfa1-Rfa2-Rfa3) [4] = target: T1, RPA (Rfa1-Rfa2-Rfa3); assay: EMSA; minimal length for stable first RPA; EMSA: 20 mM Tris-HCl pH 7.5, 150 (or 15) mM KCl, 1 mM DTT, 100 ug/mL BSA, 5 nM DNA, 30 C 10 min; curtains: 40 mM Tris-HCl pH 7.5, 150 or 15 mM NaCl, 2 mM MgCl2, 1 mM DTT, 0.2 mg/mL BSA; MST: 1x PBS-P+; settings: protein: recombinant; tags: His tag (MST: His-tagged RPA, RED-tris-NTA dye); copies: 1;1;1; label: 5'-32P
RPA (Rfa1-Rfa2-Rfa3) [5] = target: T1, RPA (Rfa1-Rfa2-Rfa3); assay: EMSA; minimal length for stable third RPA; EMSA: 20 mM Tris-HCl pH 7.5, 150 (or 15) mM KCl, 1 mM DTT, 100 ug/mL BSA, 5 nM DNA, 30 C 10 min; curtains: 40 mM Tris-HCl pH 7.5, 150 or 15 mM NaCl, 2 mM MgCl2, 1 mM DTT, 0.2 mg/mL BSA; MST: 1x PBS-P+; settings: protein: recombinant; tags: His tag (MST: His-tagged RPA, RED-tris-NTA dye); copies: 1;1;1; label: 5'-32P
RPA (Rfa1-Rfa2-Rfa3) [6] = target: T1, RPA (Rfa1-Rfa2-Rfa3); assay: EMSA; 150 mM KCl; single shifted species, affinity similar to dT30; EMSA: 20 mM Tris-HCl pH 7.5, 150 (or 15) mM KCl, 1 mM DTT, 100 ug/mL BSA, 5 nM DNA, 30 C 10 min; curtains: 40 mM Tris-HCl pH 7.5, 150 or 15 mM NaCl, 2 mM MgCl2, 1 mM DTT, 0.2 mg/mL BSA; MST: 1x PBS-P+; settings: protein: recombinant; tags: His tag (MST: His-tagged RPA, RED-tris-NTA dye); copies: 1;1;1; label: 5'-32P
RPA (Rfa1-Rfa2-Rfa3) [7] = target: T1, RPA (Rfa1-Rfa2-Rfa3); assay: EMSA; 150 mM KCl; 2-stage binding; EMSA: 20 mM Tris-HCl pH 7.5, 150 (or 15) mM KCl, 1 mM DTT, 100 ug/mL BSA, 5 nM DNA, 30 C 10 min; curtains: 40 mM Tris-HCl pH 7.5, 150 or 15 mM NaCl, 2 mM MgCl2, 1 mM DTT, 0.2 mg/mL BSA; MST: 1x PBS-P+; settings: protein: recombinant; tags: His tag (MST: His-tagged RPA, RED-tris-NTA dye); copies: 1;1;1; label: 5'-32P

B1: dT(60) (ssDNA)
DNA: TTTTTTTTTTTTTTTTTTTTTTTTTTTTTTTTTTTTTTTTTTTTTTTTTTTTTTTTTTTT
B1: binds (RPA (Rfa1-Rfa2-Rfa3) [1]).

TTTTTTTTTTTTTTTTTTTTTTTTTTTTTTTTTTTTTTTT (ssDNA) [dT(40)]: binds (RPA (Rfa1-Rfa2-Rfa3) [2]).

TTTTTTTTTTTTTTTTTTTTTTTTTTTTTT (ssDNA) [dT(30)]: binds (RPA (Rfa1-Rfa2-Rfa3) [3]); binds (RPA-MeGFP).

TTTTTTTTTTTTTTT (ssDNA) [dT(15)]: binds (RPA (Rfa1-Rfa2-Rfa3) [4]).

B2: dT(54) (ssDNA)
DNA: TTTTTTTTTTTTTTTTTTTTTTTTTTTTTTTTTTTTTTTTTTTTTTTTTTTTTT
B2: binds (RPA (Rfa1-Rfa2-Rfa3) [5]).

TTTTTTTTTTTTTTTTTTTT (ssDNA) [dT(20)]: binds (RPA (Rfa1-Rfa2-Rfa3) [6]).

TTTTTTTTTTTTTTTTTTTTTTTTTTTTTTTTTTTTTTTTTTTTTTTTTT (ssDNA) [dT(50)]: binds (RPA (Rfa1-Rfa2-Rfa3) [7]).
